PMC6265731

Tests used:
Assay in all cases: affinity purification with mass spectrometry
[1] = target: WT PLRV (assembled virions and/or soluble structural proteins CP and RTP, as captured by the α-PLRV antibody) (Potato leafroll virus)
[2] = target: non-incorporated (soluble) form of the PLRV readthrough protein expressed by the ΔCP mutant (Potato leafroll virus)
[3] = target: ΔRTC PLRV (virions and soluble structural proteins of the mutant whose RTD lacks the last 218 C-terminal residues) (Potato leafroll virus)

Question: “Potato leafroll virus P3a protein (from UniProt P0DTK2 1-45) (natural protein)” was tested. Which fold decrease of P3a (normalised to CP) in ΔP17 APs against WT APs [1] did it give?
Answer: Its fold decrease of P3a (normalised to CP) in ΔP17 APs against WT APs is 3.4 fold.

B1: Potato leafroll virus P17 movement protein (natural protein)
chain: MSMVVYNNQECEEGNPFAGALTEFSQWLWSRPLGNPGAEDAEEEAIAAQEELEFPEDEAQARHSCLQRTTSWATPKEVSPSGRVYQTVRHSRMEYSRPTMSIRSQASYFSSSARPLPPPPVPSLMSWTPIAKYHPSSPTSTSSKLRRAAPKLIKRG
Question: Which fold increase of P17 (normalised to CP) in ΔCP APs against WT APs [2] does the source give for B1 here?
Answer: Its fold increase of P17 (normalised to CP) in ΔCP APs against WT APs is 1.8 fold.

B2: Potato leafroll virus P1 polyprotein (natural protein)
chain: KEAGFLHPAFNFRGTSTMSASSGDYSAAPTPLYKSWALPSSLNLTTQPPPPLTDRSYYELVQALTSKMRLDCQTVGDMTWRHLSEMLFASWNSVKEVSLKAASVTLWAIINIWFGLYWTLARLITLFLWTFSIEALCLILLGCITSLIYKGALSLSEHLPVFLFMSPLKIIWRAAFSKRNYKNERAVEGYKGFSVPQKPPKSAVIELQHENGSHLGYANCIRLYSGENALVTAEHCLEGAFATSLKTGNRIPMSTFFPIFKSARNDISILVGPPNWEGLLSVKGAHFITADKIGKGPASFYTLEKGEWMCHSATIDGAHHQFVSVLCNTGPGYSGTGFWSSKNLLGVLKGFPLEEECNYNVMSVIPSIPGITSPNYVFESTAVKGRVFSDEAVKELEREASEAVKKLARFKSLTDKNWADDYDSDEDYGLEREAATNAPAEKTAQTNSAEKTAPSTSAEKTALTNKPLNGQAAPSAKTNGNSDIPDAATSAPPMDKMVEQIITAMVGRINLSEIEEKIVSRVSQKALQKPKQKKRGRRGGKNKQNSLPPTSTQSTSGAPKKEAAPQASGSAGTSRATTTPAPEAKPSGGKNSAKFTPSWRIKQQDSAGQKPDLKLNSKA
Question: With B2 as the molecule, how does the fold increase of P1 (normalised to CP) in ΔRTC APs against WT APs [3] read?
Answer: Its fold increase of P1 (normalised to CP) in ΔRTC APs against WT APs is 1.8 fold.
